Results reported in the supplement of paper PMC9112550, “Optimization of the antimicrobial peptide Bac7 by deep mutational scanning” (BMC Biology, 2022).

System: Escherichia coli TOP10
Assay: shrunken log2 fold change of peptide-encoding DNA abundance (4.5 h post-induction vs induction); higher = less antimicrobial activity (less host growth inhibition)
Conditions: time post-induction: 4.5 h; library: site-saturation at positions 5, 18, 19, 20
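Further: peptides expressed intracellularly from a pBAD plasmid library in pooled LB shake-flask culture, induced with 0.3% L-arabinose, DNA abundance read by NGS, three biological replicates, DESeq2 with apeglm shrinkage.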

Sequence	shrunken log2 fold change
RRIRARPPRLPRPRPRPTYYPRP	-0.119
RRIRARPPRLPRPRPRPPKHPRP	0.472
RRIRERPPRLPRPRPRPSVMPRP	-0.175
RRIRHRPPRLPRPRPRPFAHPRP	0.186
RRIRARPPRLPRPRPRPCAIPRP	-0.00341
RRIRQRPPRLPRPRPRPNTIPRP	0.0518
RRIRNRPPRLPRPRPRPWFEPRP	-0.879
RRIRMRPPRLPRPRPRPNACPRP	0.0451
RRIRERPPRLPRPRPRPQDNPRP	-0.0327
RRIRGRPPRLPRPRPRPIPMPRP	0.372
RRIRDRPPRLPRPRPRPLHYPRP	-0.0982
RRIRERPPRLPRPRPRPYCNPRP	-0.143
RRIRRRPPRLPRPRPRPEHRPRP	0.343
RRIRLRPPRLPRPRPRPMFVPRP	-0.354
RRIRVRPPRLPRPRPRPPCPPRP	0.0333
RRIRRRPPRLPRPRPRPLERPRP	0.0981
RRIRHRPPRLPRPRPRPRHFPRP	-0.0239
RRIRKRPPRLPRPRPRPYCFPRP	-0.258
RRIRARPPRLPRPRPRPCAHPRP	-0.0288
RRIRNRPPRLPRPRPRPEPSPRP	0.145
RRIRARPPRLPRPRPRPAEMPRP	-0.0298
RRIRLRPPRLPRPRPRPRPGPRP	0.687
RRIRCRPPRLPRPRPRPRDNPRP	2.6
RRIRCRPPRLPRPRPRPHVPPRP	-0.0309
RRIRIRPPRLPRPRPRPSWIPRP	-0.411

Sequence	shrunken log2 fold change
RRIRRRPPRLPRPRPRPYRMPRP	-0.292
RRIRDRPPRLPRPRPRPIDNPRP	0.131
RRIRRRPPRLPRPRPRPQRYPRP	-0.15
RRIRCRPPRLPRPRPRPIKYPRP	-0.608
RRIRARPPRLPRPRPRPFFMPRP	-0.0309
RRIRGRPPRLPRPRPRPALLPRP	1.14
RRIRRRPPRLPRPRPRPRCRPRP	1.57
RRIRQRPPRLPRPRPRPFIEPRP	-0.0062
RRIRLRPPRLPRPRPRPILEPRP	-0.186
RRIRPRPPRLPRPRPRPQRNPRP	0.147
RRIRFRPPRLPRPRPRPRLSPRP	-0.194
RRIRWRPPRLPRPRPRPDRGPRP	-0.0836
RRIRVRPPRLPRPRPRPMSNPRP	0.0709
RRIRKRPPRLPRPRPRPNSCPRP	0.188
RRIRERPPRLPRPRPRPEKYPRP	-0.534
RRIRPRPPRLPRPRPRPQLAPRP	0.417
RRIRMRPPRLPRPRPRPSGKPRP	0.222
RRIRVRPPRLPRPRPRPMPFPRP	-0.259
RRIRCRPPRLPRPRPRPINHPRP	-0.607
RRIRGRPPRLPRPRPRPPTKPRP	0.968
RRIRRRPPRLPRPRPRPKMYPRP	-0.258
RRIRTRPPRLPRPRPRPCHPPRP	-0.0634
RRIRARPPRLPRPRPRPVQSPRP	0.14
RRIRCRPPRLPRPRPRPYGVPRP	-0.159
RRIRMRPPRLPRPRPRPIIAPRP	0.0852

Sequence	shrunken log2 fold change
RRIRTRPPRLPRPRPRPKKLPRP	-0.298
RRIRGRPPRLPRPRPRPLRKPRP	1.12
RRIRDRPPRLPRPRPRPVKIPRP	-0.101
RRIRGRPPRLPRPRPRPHSNPRP	0.117
RRIRIRPPRLPRPRPRPACCPRP	-0.086
RRIRSRPPRLPRPRPRPQKVPRP	-0.203
RRIRQRPPRLPRPRPRPREVPRP	4.11
RRIRVRPPRLPRPRPRPGAQPRP	0.00624
RRIRPRPPRLPRPRPRPQMHPRP	0.143
RRIRWRPPRLPRPRPRPLPHPRP	0.188
RRIRQRPPRLPRPRPRPDPQPRP	-0.159
RRIRWRPPRLPRPRPRPSVTPRP	0.145
RRIRMRPPRLPRPRPRPVWIPRP	-0.0455
RRIRARPPRLPRPRPRPVHDPRP	0.146
RRIRVRPPRLPRPRPRPLFGPRP	-0.104
RRIRCRPPRLPRPRPRPADKPRP	-0.0716
RRIRCRPPRLPRPRPRPPKHPRP	0.203
RRIRARPPRLPRPRPRPPEEPRP	1.73
RRIRERPPRLPRPRPRPQVWPRP	-0.0702
RRIRQRPPRLPRPRPRPMHEPRP	0.187
RRIRWRPPRLPRPRPRPNTTPRP	-0.418
RRIRNRPPRLPRPRPRPHIIPRP	0.0166
RRIRKRPPRLPRPRPRPIDPPRP	-0.0828
RRIRKRPPRLPRPRPRPRYFPRP	0.135
RRIRMRPPRLPRPRPRPNWLPRP	0.286

Sequence	shrunken log2 fold change
RRIRWRPPRLPRPRPRPARPPRP	0.566
RRIRGRPPRLPRPRPRPDCAPRP	1.53
RRIRPRPPRLPRPRPRPMQKPRP	0.0491
RRIRERPPRLPRPRPRPNHDPRP	-0.551
RRIRKRPPRLPRPRPRPQEGPRP	-0.00136
RRIRIRPPRLPRPRPRPIWWPRP	0.0713
RRIRARPPRLPRPRPRPIPHPRP	0.0126
RRIRWRPPRLPRPRPRPAFLPRP	-0.0114
RRIRDRPPRLPRPRPRPVHDPRP	0.19
RRIRCRPPRLPRPRPRPDNPPRP	-0.137
RRIRARPPRLPRPRPRPHQHPRP	-0.109
RRIRDRPPRLPRPRPRPPGDPRP	1.29
RRIRCRPPRLPRPRPRPRWCPRP	-0.131
RRIRTRPPRLPRPRPRPPPTPRP	0.828
RRIRQRPPRLPRPRPRPRVQPRP	0.527
RRIRERPPRLPRPRPRPHFWPRP	0.16
RRIRFRPPRLPRPRPRPAGWPRP	0.674
RRIRKRPPRLPRPRPRPKPSPRP	0.743
RRIRTRPPRLPRPRPRPLTIPRP	-0.315
RRIRHRPPRLPRPRPRPMYNPRP	-0.833
RRIRNRPPRLPRPRPRPDYEPRP	-0.00884
RRIRDRPPRLPRPRPRPATYPRP	-0.141
RRIRSRPPRLPRPRPRPHCKPRP	-0.397
RRIRMRPPRLPRPRPRPSGFPRP	0.411
RRIRWRPPRLPRPRPRPIMEPRP	0.0164

Sequence	shrunken log2 fold change
RRIRRRPPRLPRPRPRPGGWPRP	0.824
RRIRPRPPRLPRPRPRPLTAPRP	0.212
RRIRGRPPRLPRPRPRPISWPRP	-0.0765
RRIRARPPRLPRPRPRPYRHPRP	-0.157
RRIRWRPPRLPRPRPRPKSQPRP	0.263
RRIRSRPPRLPRPRPRPMALPRP	0.213
RRIRPRPPRLPRPRPRPRSCPRP	0.395
RRIRLRPPRLPRPRPRPNMYPRP	-0.284
RRIRYRPPRLPRPRPRPYCVPRP	-1.71
RRIRDRPPRLPRPRPRPHVRPRP	-0.12
RRIRFRPPRLPRPRPRPTPGPRP	0.677
RRIRYRPPRLPRPRPRPVRVPRP	0.0746
RRIRDRPPRLPRPRPRPEPSPRP	0.885
RRIRHRPPRLPRPRPRPAYQPRP	-0.0802
RRIRRRPPRLPRPRPRPNFVPRP	-0.142
RRIRCRPPRLPRPRPRPRFNPRP	-0.288
RRIRFRPPRLPRPRPRPPWGPRP	0.399
RRIRDRPPRLPRPRPRPLGSPRP	0.2
RRIRSRPPRLPRPRPRPYDQPRP	-0.21
RRIRDRPPRLPRPRPRPHNVPRP	0.00884
RRIRGRPPRLPRPRPRPNPFPRP	0.189
RRIRDRPPRLPRPRPRPLFRPRP	-0.168
RRIRWRPPRLPRPRPRPHHEPRP	-0.262
RRIRSRPPRLPRPRPRPTCKPRP	0.107
RRIRWRPPRLPRPRPRPMAWPRP	-0.0156

Sequence	shrunken log2 fold change
RRIRKRPPRLPRPRPRPKNLPRP	0.177
RRIRYRPPRLPRPRPRPLNSPRP	-0.0402
RRIRWRPPRLPRPRPRPIYAPRP	-0.0827
RRIRERPPRLPRPRPRPEDSPRP	0.00699
RRIRTRPPRLPRPRPRPYQDPRP	-0.0173
RRIRIRPPRLPRPRPRPKITPRP	-0.83
RRIRLRPPRLPRPRPRPMAGPRP	0.208
RRIRCRPPRLPRPRPRPKCEPRP	0.11
RRIRTRPPRLPRPRPRPSKMPRP	-0.793
RRIRTRPPRLPRPRPRPCQSPRP	0.183
RRIRQRPPRLPRPRPRPTIRPRP	-0.219
RRIRVRPPRLPRPRPRPYNNPRP	-1.16
RRIRFRPPRLPRPRPRPRLMPRP	-0.0982
RRIRHRPPRLPRPRPRPYAIPRP	-0.149
RRIRVRPPRLPRPRPRPDTEPRP	0.0532
RRIRARPPRLPRPRPRPRHVPRP	0.162
RRIRCRPPRLPRPRPRPYPYPRP	-0.248
RRIRVRPPRLPRPRPRPEAGPRP	0.553
RRIRSRPPRLPRPRPRPSKFPRP	-0.779
RRIRLRPPRLPRPRPRPTTTPRP	0.00266
RRIRKRPPRLPRPRPRPVYHPRP	0.0002
RRIRCRPPRLPRPRPRPTRIPRP	0.258
RRIRFRPPRLPRPRPRPYPFPRP	-0.69
RRIRFRPPRLPRPRPRPKQWPRP	0.133
RRIRRRPPRLPRPRPRPQWSPRP	-0.00927
